Data on one molecule can be found in publication PMC7513893 (Redox Biology, 2020).

The target in experiment [1] is ADAM17 cytoplasmic domain, wild type (ADAM17cyto^WT), recombinant (UniProt P78536 693-824). In words: ELISA. In general terms: In an ELISA, binding on a coated surface is turned into a signal by an enzyme label.
Experiment [2] concerns the target ADAM17 cytoplasmic domain mutant F730A (ADAM17cyto^F730A), recombinant (UniProt P78536 693-824, F730A). In words: ELISA.

Sequence of ADAM17 cytoplasmic domain, wild type (ADAM17cyto^WT), recombinant (P78536 693-824): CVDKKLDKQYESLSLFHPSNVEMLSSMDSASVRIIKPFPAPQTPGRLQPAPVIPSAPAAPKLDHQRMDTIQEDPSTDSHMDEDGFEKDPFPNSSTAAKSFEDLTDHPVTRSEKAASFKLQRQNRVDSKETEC
Sequence of ADAM17 cytoplasmic domain mutant F730A (ADAM17cyto^F730A), recombinant (P78536 693-824 F730A): as the sequence (P78536 693-824) above, with F38A counted along it

B1: Thioredoxin-1 (Trx-1), recombinant (enzyme, human, UniProt P10599 1-105, looked up)
chain: MVKQIESKTAFQEALDAAGDKLVVVDFSATWCGPCKMIKPFFHSLSEKYSNVIFLEVDVDDCQDVASECEVKCMPTFQFFKKGQKVGEFSGANKEKLEATINELV
For the molecule B1, the binding result in experiment [1] and in experiment [2] was “binds” throughout.
